Target: T1, alpha chain of the constant region of the murine T cell receptor (TCR) (murine, UniProt P01849 1-136)
T1 construct: Endogenous protein in mouse spleen tissue; The variable parts and the beta chains are those of the tissue's T cells and are not defined; also called mouse spleen TCR
T1 TCR alpha (looked up): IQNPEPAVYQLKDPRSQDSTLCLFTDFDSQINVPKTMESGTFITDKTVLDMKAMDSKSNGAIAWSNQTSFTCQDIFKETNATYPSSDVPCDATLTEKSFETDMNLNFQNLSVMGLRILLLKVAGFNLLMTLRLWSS
Test: immunohistochemistry on FFPE section of mouse spleen
Protocol: The candidate antibodies were screened for their utility in immunohistochemistry. Specimens were sectioned at 4 micron thickness, mounted onto positive-charged glass slides, dried, baked, deparaffinized, and rehydrated. Following rehydration, tissue sections were incubated in Envision Peroxidase (Dako) for 5 minutes to quench endogenous peroxidase. Sections underwent heat-induced epitope retrieval using high-pH buffer for 40 minutes in a water bath set to 95° C. followed by a rinse in neutral buffer. Slides were incubated with antibody or negative reagent control diluted in diluent for 30 minutes. Slides were then rinsed twice in buffer for 5 minutes each followed by detection using the Envision+Rabbit HRP Detection Kit (Dako) for 30 minutes. Slides were rinsed twice with buffer for 5 minutes each followed by incubation with DAB (Dako) for 5 minutes. Slides were rinsed with water, counterstained with hematoxylin, blued in ammonia water, dehydrated through graded alcohols, cleared in xylene, and coverslipped. As shown in FIGS. 5A-E, E7 TCR-transduced, Peripheral blood mononuclear cells (PBMCs) transduced with the MAGE A3/A6 TCR, and FFPE section of mouse spleen stain with the exemplary mAb clone 39 (KIP-8) antibody described herein. […] Normal mouse spleen sections stain with KIP-8 further indicating its specificity for the murine alpha constant sequence.

B1: KIP-8 antibody (mAb clone 39; Clone 39-4) (antibody, V domains shown)
VH: QEQLVESGGGLVQPEGSLTLTCTASGFDLGNNWIHWVRHAPGKGLEWIACVSGSSGNIYYATWAKGRFTMSKASSTTVTLRMTSLTAADTATYFCARGWNLWGPGTLVTVSS
VL: AQVLTQTPASVSAAVGGTVTINCQASQSVYSSNLLTWYQKKPGQPPKLLIYEASKLPSGIPSRFSGSGSGTQFTLTISDVQCADAATYYCLGIYDCVLADCQAFGGGTEVVVKG
notes: Rabbit monoclonal antibody; also called clone 39 (KIP-8); Clone 39-4 vh1
- binding result: binds
